Laboratory results reported in article PMC9976917.

Experiments:
Assay in all cases: fluorescence polarization
ZNF410 NT = target: T1, ZNF410 NT (Homo sapiens, UniProt Q86VK4 1-216)
T1 sequence: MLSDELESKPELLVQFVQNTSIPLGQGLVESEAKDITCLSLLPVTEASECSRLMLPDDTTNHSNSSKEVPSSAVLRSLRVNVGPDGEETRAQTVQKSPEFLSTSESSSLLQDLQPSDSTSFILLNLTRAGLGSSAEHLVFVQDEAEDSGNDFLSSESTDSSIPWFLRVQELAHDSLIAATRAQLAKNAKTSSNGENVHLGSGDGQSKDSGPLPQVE

[1] = target: T2, ZNF410 FL seven S/T-to-D/E (Homo sapiens, UniProt Q86VK4 1-478, S148D;S154D;S155D;S157D;T158E;S160D;S161D)
T2 sequence: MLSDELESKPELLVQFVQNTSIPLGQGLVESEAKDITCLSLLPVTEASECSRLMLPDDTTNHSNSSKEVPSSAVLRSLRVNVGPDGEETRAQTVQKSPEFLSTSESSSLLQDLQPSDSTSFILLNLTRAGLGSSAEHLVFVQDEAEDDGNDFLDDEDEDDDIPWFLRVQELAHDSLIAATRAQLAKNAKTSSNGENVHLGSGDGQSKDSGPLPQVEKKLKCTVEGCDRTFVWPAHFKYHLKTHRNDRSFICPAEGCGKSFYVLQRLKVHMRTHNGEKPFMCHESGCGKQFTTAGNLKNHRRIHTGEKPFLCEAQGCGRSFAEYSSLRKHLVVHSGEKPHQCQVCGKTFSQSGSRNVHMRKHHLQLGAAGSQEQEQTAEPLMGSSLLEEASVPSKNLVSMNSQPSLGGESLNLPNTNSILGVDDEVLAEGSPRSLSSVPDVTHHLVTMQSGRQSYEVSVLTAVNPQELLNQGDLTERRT

ZNF410 FL DEAED-to-AAAAA = target: T3, ZNF410 FL DEAED-to-AAAAA (Homo sapiens, UniProt Q86VK4 1-478, D143A;E144A;E146A;D147A)
T3 sequence: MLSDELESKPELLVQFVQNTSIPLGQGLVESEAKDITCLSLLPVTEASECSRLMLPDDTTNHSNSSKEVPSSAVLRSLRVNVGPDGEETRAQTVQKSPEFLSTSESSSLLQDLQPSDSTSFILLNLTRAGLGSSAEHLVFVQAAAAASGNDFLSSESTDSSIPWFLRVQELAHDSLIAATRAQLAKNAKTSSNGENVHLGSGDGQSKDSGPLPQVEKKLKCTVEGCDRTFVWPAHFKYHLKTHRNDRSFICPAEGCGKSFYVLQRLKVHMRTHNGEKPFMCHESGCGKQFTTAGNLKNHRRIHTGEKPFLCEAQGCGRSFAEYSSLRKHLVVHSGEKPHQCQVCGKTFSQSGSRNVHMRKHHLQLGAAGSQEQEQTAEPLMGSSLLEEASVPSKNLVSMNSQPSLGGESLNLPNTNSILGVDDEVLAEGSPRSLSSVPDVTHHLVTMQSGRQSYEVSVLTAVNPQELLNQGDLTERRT

B1: FAM 17-bp ZNF410 motif duplex (dsDNA)
DNA 1: CACATCCCATAATAATG
DNA 2: CATTATTATGGGATGTG
binding result (ZNF410 NT): no binding
binding signal [1]: > 6 fold lower affinity than wild-type FL
binding signal (ZNF410 FL DEAED-to-AAAAA): > 4 fold higher affinity than wild-type FL
